From patent US20040241689A1 (published 2004)

Target: T1, human plasma fibronectin (human, UniProt P02751 32-2296)
T1 construct: Bought (Sigma); used in solution for ligand blots, coated on microtitre wells, or coupled to Sepharose; also called Fn; human Fn
Assay: ELISA, recombinant protein titrated on immobilized human Fn (100 ng/well), detected with antiserum

T1 sequence (P02751 other isoform, or with tags, fused parts or gaps limits assumed): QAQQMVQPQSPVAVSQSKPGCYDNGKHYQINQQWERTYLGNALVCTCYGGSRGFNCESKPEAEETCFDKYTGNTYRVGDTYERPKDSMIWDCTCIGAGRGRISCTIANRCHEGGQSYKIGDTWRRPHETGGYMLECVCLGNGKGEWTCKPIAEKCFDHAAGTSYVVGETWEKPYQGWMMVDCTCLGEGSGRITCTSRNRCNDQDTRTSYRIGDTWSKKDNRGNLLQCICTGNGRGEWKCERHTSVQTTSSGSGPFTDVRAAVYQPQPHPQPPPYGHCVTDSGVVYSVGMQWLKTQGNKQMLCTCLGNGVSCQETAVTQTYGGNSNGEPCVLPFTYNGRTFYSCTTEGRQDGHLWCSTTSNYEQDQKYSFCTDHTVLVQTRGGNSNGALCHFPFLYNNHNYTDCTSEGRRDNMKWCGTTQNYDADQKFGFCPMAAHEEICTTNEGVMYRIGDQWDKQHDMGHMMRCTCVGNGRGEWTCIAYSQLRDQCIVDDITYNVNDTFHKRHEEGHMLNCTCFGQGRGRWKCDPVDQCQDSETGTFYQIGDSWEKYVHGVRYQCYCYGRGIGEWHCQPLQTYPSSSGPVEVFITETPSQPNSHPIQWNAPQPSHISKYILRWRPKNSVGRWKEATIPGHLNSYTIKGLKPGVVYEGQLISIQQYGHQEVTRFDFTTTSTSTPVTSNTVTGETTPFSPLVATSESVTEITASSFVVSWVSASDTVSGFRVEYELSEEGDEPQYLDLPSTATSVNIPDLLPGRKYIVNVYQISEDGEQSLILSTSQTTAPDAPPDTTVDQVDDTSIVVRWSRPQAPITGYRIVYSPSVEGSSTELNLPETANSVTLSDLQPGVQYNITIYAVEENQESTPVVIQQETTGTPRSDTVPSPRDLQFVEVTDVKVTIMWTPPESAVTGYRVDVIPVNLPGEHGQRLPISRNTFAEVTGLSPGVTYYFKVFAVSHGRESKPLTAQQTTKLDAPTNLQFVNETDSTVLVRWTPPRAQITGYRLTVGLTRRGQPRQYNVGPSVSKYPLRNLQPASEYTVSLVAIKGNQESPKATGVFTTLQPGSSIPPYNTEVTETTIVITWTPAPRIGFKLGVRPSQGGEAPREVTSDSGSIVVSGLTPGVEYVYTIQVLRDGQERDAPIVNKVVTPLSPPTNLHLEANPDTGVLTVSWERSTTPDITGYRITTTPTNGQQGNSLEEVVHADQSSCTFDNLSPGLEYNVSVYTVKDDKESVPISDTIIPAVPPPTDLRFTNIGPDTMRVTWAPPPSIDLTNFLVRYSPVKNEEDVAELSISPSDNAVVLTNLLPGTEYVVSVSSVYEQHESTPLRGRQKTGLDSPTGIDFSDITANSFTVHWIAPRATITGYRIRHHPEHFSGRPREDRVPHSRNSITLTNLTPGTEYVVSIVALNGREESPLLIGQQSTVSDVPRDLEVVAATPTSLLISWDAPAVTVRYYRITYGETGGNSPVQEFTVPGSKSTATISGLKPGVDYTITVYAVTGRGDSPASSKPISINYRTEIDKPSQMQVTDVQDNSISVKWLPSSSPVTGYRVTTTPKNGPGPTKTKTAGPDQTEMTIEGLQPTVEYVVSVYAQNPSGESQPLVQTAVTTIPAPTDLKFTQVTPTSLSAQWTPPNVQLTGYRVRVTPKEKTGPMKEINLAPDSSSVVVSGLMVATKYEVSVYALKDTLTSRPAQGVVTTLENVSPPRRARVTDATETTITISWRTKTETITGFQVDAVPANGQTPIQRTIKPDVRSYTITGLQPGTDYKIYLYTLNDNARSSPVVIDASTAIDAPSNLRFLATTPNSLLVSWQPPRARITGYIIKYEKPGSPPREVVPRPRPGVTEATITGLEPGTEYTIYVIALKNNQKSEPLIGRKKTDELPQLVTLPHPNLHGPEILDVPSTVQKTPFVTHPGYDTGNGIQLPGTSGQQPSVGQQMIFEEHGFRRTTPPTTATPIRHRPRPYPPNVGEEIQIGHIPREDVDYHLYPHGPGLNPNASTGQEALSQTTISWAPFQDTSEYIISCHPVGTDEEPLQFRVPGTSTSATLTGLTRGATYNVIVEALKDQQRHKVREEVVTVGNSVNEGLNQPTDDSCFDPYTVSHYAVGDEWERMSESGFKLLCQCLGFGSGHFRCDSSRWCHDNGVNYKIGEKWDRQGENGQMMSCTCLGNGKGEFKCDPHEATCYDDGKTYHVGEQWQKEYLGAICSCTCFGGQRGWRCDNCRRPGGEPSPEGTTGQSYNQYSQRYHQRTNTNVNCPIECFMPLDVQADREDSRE

B1: recombinant NPDH (His10-NPDH-B), amino acids 1-244 of Mycoplasma pneumoniae pyruvate dehydrogenase E1 beta subunit (other)
chain: MSKTIQANNIEALGNAMDLALERDPNVVLYGQDAGFEGGVFRATKGLQKKYGEERVWDCPIAEAAMAGIGVGAAIGGLKPIVEIQFSGFSFPAMFQIFTHAARIRNRSRGVYTCPIIVRMPMGGGIKALEHHSETLEAIYGQIAGLKTVMPSNPYDTKGLFLAAVESPDPVVFFEPKKLYRAFRQEIPADYYTVPIGQANLISQGNNLTIVSYGPTMFDLINMVYGGELKDKGIELIDLRTISP
  Kd: 0.075 µg/mL
